Results reported in US20260184815A1 (published 2026).
Substitutions are numbered along the chain they refer to.

B1: M146-E12 (Fab, V domains shown)
VH: EVQLLESGGGLVQPGGSLRLSCAASGFTFSRYIMHWVRQAPGKGLEWVSSISPSGGLTSYADSVKGRFTISRDNSKNTLYLQMNSLRAEDTAVYYCAREFENAYHYYYYGMDVWGQGTTVTVSS
VL: DIQMTQSPSSLSASVGDRVTITCRASGDIGNALGWYQQKPGKAPRLLISDASTLQSGVPLRFSGSGSGTEFTLTISSLQPEDFATYYCLQGYNYPRTFGQGTKLEIR
notes: HC as printed runs into CH1
B2: M6-A06 (Fab, V domains shown)
VH: EVQLLESGGGLVQPGGSLRLSCAASGFTFSLYQMTWVRQAPGKGLEWVSGIWPSGGFTDYADSVKGRFTISRDNSKNTLYLQMNSLRAEDTAVYYCARVSTAVADNDYWGQGTLVTVSS
VL: DIQMTQSPSSLSASVGDSVTISCRASQSISMYLNWYQHKPGKAPKLLIYGTSSLQSGVPSRFSGSGPGGTDFTLTISSLQPEDFATYYCQQSYSAPWTFGQGTKVEIK
notes: HC as printed runs into CH1
B3: M6-D03 (Fab, V domains shown)
VH: B2 VH with L31K, Q33F, T35G, G50V, W52G, P53S, F57W, D59S
VL: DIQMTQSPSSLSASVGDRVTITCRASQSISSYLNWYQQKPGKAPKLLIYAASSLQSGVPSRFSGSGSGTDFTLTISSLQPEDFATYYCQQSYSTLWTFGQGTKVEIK
notes: HC as printed runs into CH1
B4: M160-G12 (Fab) (Fab, V domains shown)
VH: EVQLLESGGGLVQPGGSLRLSCAASGFTFSHYLMTWVRQAPGKGLEWVSYISPSGGHTIYADSVKGRFTISRDNSKNTLYLQMNSLRAEDTAVYYCARVARGIAARSRTSYFDYWGQGTLVTVSS
VL: DIQMTQSPSFLSASVGDRVTITCRASQGISSYLAWYQQKPGKAPKLLIYAASTLQSGVPSRFSGSGSGTEFTLTISSLQPEDFATYYCQQLNSYPLTFGGGTKVEIK
notes: HC as printed runs into CH1
B5: M145-D11 (Fab, V domains shown)
VH: EVQLLESGGGLVQPGGSLRLSCAASGFTFSHYRMSWVRQAPGKGLEWVSSIYPSGGRTVYADSVKGRFTISRDNSKNTLYLQMNSLRAEDTAVYYCAKDKFEWRLLFRGIGNDAFDIWGQGTMVTVSS
VL: QSVLTQPPSVSVSPGQTASITCSGDKLGDKYTSWYQQRPGQSPVLVIYQDIKRPSGIPERFSGSNSGNTATLTISGTQAMDEADYYCQAWDSPNARVFGSGTKVTVL
notes: HC as printed runs into CH1; also called 559A-M0145-D11
B6: M110-C12 (Fab, V domains shown)
VH: EVQLLESGGGLVQPGGSLRLSCAASGFTFSYYEMDWVRQAPGKGLEWVSGISSSGGHTAYADSVKGRFTISRDNSKNTLYLQMNSLRAEDTATYYCARERRSSSRARYYYGMDVWGQGTTVTVSS
VL: DIQMTQSPLSLSVTPGEPASISCRSSLSLLHSNGYNYLDWYVQRPGQSPQLLMYLSSTRASGVPDRFSGSGSGTDFTLEISRVEAEDVGVYYCMQPLETPPTFGGGTKVEIK
notes: HC as printed runs into CH1
B7: M142-H08 (Fab) (Fab, V domains shown)
VH: EVQLLESGGGLVQPGGSLRLSCAASGFTFSAYSMIWVRQAPGKGLEWVSYIRPSGGRTTYADSVKGRFTISRDNSKNTLYLQMNSLRAEDTAVYYCARGGLLLWFRELKSNYFDYWGQGTLVTVSS
VL: DIQMTQSPSSLSAFVGDRVTITCRASQPIDNYLNWYHQKPGKAPKLLIYAASRLQSGVPSRLSGSGFGTDFTLTISSLQPEDFGNYYCQQSYTVPYTFGGGTKVEIR
notes: HC as printed runs into CH1
B8: M152-A12 (Fab, V domains shown)
VH: EVQLLESGGGLVQPGGSLRLSCAASGFTFSPYFMGWVRQAPGKGLEWVSGIGPSGGSTTYADSVKGRFTISRDNSKNTLYLQMNSLRAEDTAVYYCAREGPPYSSGWYRGLRQYHFDYWGQGTLVTVSS
VL: DIQMTQSPSSLSASVGDRVTITCRASQSISSYLSWYQQRPGKAPNLLIYAASSLQSGVPSRFSGSGSGTDFTLTISSLQPEDFATYYCQQSISIPRTFGQGTKVEVK
notes: HC as printed runs into CH1
B9: M8-H04 (Fab, V domains shown)
VH: EVQLLESGGGLVQPGGSLRLSCAASGFTFSGYWMGWVRQAPGKGLEWVSSISSSGGWTQYADSVKGRFTISRDNSKNTLYLQMNSLRAEDTATYYCARDDEIAAGGAFDIWGQGAMVTVSS
VL: DIQMTQSPSSLSASIGDRVTITCRASQYISTYLNWYEQKPGKAPKLLIYGTSSLQSGVPSRFSGSGSGTEFSLTISSLQPEDFATYYCQQSFTTPFTFGQGTKLEIK
notes: HC as printed runs into CH1
B10: M145-D01 (Fab, V domains shown)
VH: EVQLLESGGGLVQPGGSLRLSCAASGFTFSYYHMSWVRQAPGKGLEWVSVISPSGGSTKYADSVKGRFTISRDNSKNTLYLQMNSLRAEDTAVYYCARGGSSDYAWGSYRRPYYFDYWGQGTLVTVSS
VL: DIQMTQSPATLSLSPGERATLSCRASQSVSSYLAWYQQKPGQAPRLLIYDASNRATGIPARFSGSGSGTDFTLTISSLEPEDFAVYYCQQRSNWPRGFTFGPGTKVDIK
notes: HC as printed runs into CH1
B11: M8-D05 (Fab, V domains shown)
VH: EVQLLESGGGLVQPGGSLRLSCAASGFTFSLYNMNWVRQAPGKGLEWVSSISPSGGFTDYADSVKGRFTISRDNSKNTLYLQMNSLRAEDTAVYYCARDLDLGILDYWGQGTLVTVSS
VL: DIQMTQSPSFVSASVGDRVTITCRASQDISSWLVWYQQKPGKGPKLLIYDASNLQSGVPSRFSGGGSGTHFTLTISSLQPEDFATYYCQQADGFPLTFGGGTKVEMK
notes: HC as printed runs into CH1
B12: M6-G05 (Fab, V domains shown)
VH: EVQLLESGGGLVQPGGSLRLSCAASGFTFSRYRMVWVRQAPGKGLEWVSSIYPSGGMTAYADSVKGRFTISRDNSKNTLYLQMNSLRAEDTAVYYCARDAVGIGDAFDIWGQGTMVTVSS
VL: DIQMTQSPSSLSASVGDRVTITCRASQSISTYLNWYQLKPGKAPKLLIYNAFSMERGVPSTISGSGSGTDFTLTISSLQPEDFATYYCQQSYTTPTTFGQGTKVEIK
notes: HC as printed runs into CH1
B13: M137-E12 (Fab, V domains shown)
VH: EVQLLESGGGLVQPGGSLRLSCAASGFTFSDYRMQWVRQAPGKGLEWVSVIVPSGGNTMYADSVKGRFTISRDNSKNTLYLQMNSLRAEDTAVYYCARGGPGSSIAARRAPTGYYGMDVWGQGTTVTVSS
VL: QSVLIQPPSVSGIPGQRVTISCSGNNSNFGSNTVTWYQQLPGTAPKLLIYSDSRRPSGVPDRFSGSRSDTSASLAISGLQSEDEAEYHCAAWDDSLNGVFGGGTKLTVL
notes: HC as printed runs into CH1
B14: M9-A08 (Fab, V domains shown)
VH: EVQLLESGGGLVQPGGSLRLSCAASGFTFSAYEMWWVRQAPGKGLEWVSYIGSSGGSTSYADSVKGRFTISRDNSKNTLYLQMNSLRAEDTAVYYCTGGNSSSFDAFDIWGQGTMVTVSS
VL: DIQMTQSPSSLSASVGDRVTVTCRASQRISTYLNWYQQKPGKAPKLLISGASSLQSGVPSRFSGSGSGTDFTLTISSLQPDDFATYYCQQSYNTPRTFGQGTKVEIR
notes: HC as printed runs into CH1
B15: M6-D08 (Fab, V domains shown)
VH: EVQLLESGGGLVQPGGSLRLSCAASGFTFSRYHMVWVRQAPGKGLEWVSSISPSGGWTNYADSVKGRFTISRDNSKNTLYLQMNSLRAEDTAMYYCAREMATIAGQFDPWGQGTLVTVSS
VL: DIQMTQSPSSLSASVGDRVTITCRASQSISSYLNWYQQKPGKAPKLLIYGASSLQSGVPSRFSGSGSGTDFTLTISSLQPEDSATYYCQQSYTRWTFGQGTKVEIK
notes: HC as printed runs into CH1; LC amber q (WYqQK) written as Q
B16: M8-G09 (Fab, V domains shown)
VH: EVQLLESGGGLVQPGGSLRLSCAASGFTFSLYEMLWVRQAPGKGLEWVSVIYPSGGYTDYADSVKGRFTISRDNSKNTLYLQMNSLRAEDMAVYYCARSFSGFGEIDYWGQGTLVTVSS
VL: DIQMTQSPSSLSASVGDTVTITCRASQGVSYYLAWFQQKPGKAPKSLIYGASSLQSGVPSKFSGSGSGTVFTLTISSLQPDDFATYYCQQYNTYPPTFGQGTRLDIK
notes: HC as printed runs into CH1
B17: M161-C11 (Fab, V domains shown)
VH: EVQLLESGGGLVQPGGSLRLSCAASGFTFSDYAMKWVRQAPGKGLEWVSSISSSGGVTQYADSVKGRFTISRDNSKNTLYLQMNSLRAEDTAVYYCAREEDYSSSWYSRRFDYYYGMDVWGQGTTVTVSS
VL: QSALTQPPSVSVSPGQTASITCSGDKLGDKYVSWYQQRPGQSPVLVIYQDTKRPSGIPERFSGSNSGNTATLTISGTQAVDEADYYCQAWDSSTYVFGGGTKVTVL
notes: HC as printed runs into CH1
B18: M8-E06 (Fab, V domains shown)
VH: EVQLLESGGGLVQPGGSLRLSCAASGFTFSHYFMTWVRQAPGKGLEWVSSIVPSGGMTQYADSVKGRFTISRDNSKNTLYLQMNSLRAEDTAVYYCARDSYSSSWFDIWGQGTMVTVSS
VL: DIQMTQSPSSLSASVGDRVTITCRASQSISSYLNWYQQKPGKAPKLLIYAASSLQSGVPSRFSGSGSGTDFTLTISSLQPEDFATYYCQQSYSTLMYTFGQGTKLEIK
notes: HC as printed runs into CH1
B19: M6-A08 (Fab, V domains shown)
VH: EVQLLESGGGLVQPGGSLRLSCAASGFTFSPYPMQWVRQAPGKGLEWVSSISSSGGMTEYADSVKGRFTISRDNSKNTLYLQMNSLRAEDTAVYYCARDDYGGKGGAFDIWGQGTMVTVSS
VL: DIQMTQSPSSLSASVGDRVTITCRASQRISFYLNWFQQKPGKAPNLLIYGASSLQSGVPSRFSGSGSGTDFTLTISSLQPKDFGTYYCQQTFSTPNTFGQGTKLEIK
notes: HC as printed runs into CH1
B20: M162-A04 (Fab) (Fab, V domains shown)
VH: EVQLLESGGGLVQPGGSLRLSCAASGFTFSHYIMMWVRQAPGKGLEWVSGIYSSGGITVYADSVKGRFTISRDNSKNTLYLQMNSLRAEDTAVYYCAYRRTGIPRRDAFDIWGQGTMVTVSS
VL: DIQMTQSPSTLSASVGDRVTITCRASQSISSWLAWYQQKPGKAPNLLIYKASTLESGVPSRFSGSGSGTEFTLTISSLQPDDFATYYCQQYNTYWTFGQGTKVEIK
notes: Non-germlined Fab discovered using phage display; HC as printed runs into CH1
B21: M9-A03 (Fab, V domains shown)
VH: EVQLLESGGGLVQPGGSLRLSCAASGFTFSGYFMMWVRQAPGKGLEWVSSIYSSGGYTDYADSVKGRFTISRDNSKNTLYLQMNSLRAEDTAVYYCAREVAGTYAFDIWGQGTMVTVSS
VL: DIQMTQSPSSLSASLGDRVTITCRASQNIDIYLNWYQQTPGKAPKLLIYGAYNLQSGVPSRFSGSGSGTDFTLTISSLQPEDFGTYYCQQSYGTPVFGQGTKLEIK
notes: HC as printed runs into CH1
B22: M8-C04 (Fab, V domains shown)
VH: EVQLLESGGGLVQPGGSLRLSCAASGFTFSYYPMQWVRQAPGKGLEWVSYIYPSGGLTSYADSVKGRFTISRDNSKNTLYLQMNSLRAEDTAVYYCARLFYGSGSVGFEYWGQGTLVTVSS
VL: QSALTQPPSVSVSPGQTASITCSGDKLGDKYTSWHQQKPGQSPVLVIYQDSKRPSGIPERFSGSNSGNTATLTISGTQAMDEADYYCQAWDSSTVFGGGTRLTVL
notes: HC as printed runs into CH1

Biological target: T1, human plasma kallikrein (human, UniProt P03952 20-390; P03952 391-638)
T1 construct: also called pKal; Human pKal
T1 sequence (P03952 20-390, chain 1 of 2): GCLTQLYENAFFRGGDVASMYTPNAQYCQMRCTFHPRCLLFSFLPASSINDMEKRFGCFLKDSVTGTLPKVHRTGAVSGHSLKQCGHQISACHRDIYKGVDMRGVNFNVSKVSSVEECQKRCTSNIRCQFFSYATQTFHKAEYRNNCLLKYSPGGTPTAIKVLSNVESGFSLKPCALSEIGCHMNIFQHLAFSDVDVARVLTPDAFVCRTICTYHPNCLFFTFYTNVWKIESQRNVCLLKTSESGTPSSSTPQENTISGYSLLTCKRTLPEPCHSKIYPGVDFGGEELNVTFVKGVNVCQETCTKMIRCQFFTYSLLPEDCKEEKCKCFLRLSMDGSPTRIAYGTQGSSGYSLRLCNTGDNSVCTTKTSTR
T1 sequence (P03952 391-638, chain 2 of 2): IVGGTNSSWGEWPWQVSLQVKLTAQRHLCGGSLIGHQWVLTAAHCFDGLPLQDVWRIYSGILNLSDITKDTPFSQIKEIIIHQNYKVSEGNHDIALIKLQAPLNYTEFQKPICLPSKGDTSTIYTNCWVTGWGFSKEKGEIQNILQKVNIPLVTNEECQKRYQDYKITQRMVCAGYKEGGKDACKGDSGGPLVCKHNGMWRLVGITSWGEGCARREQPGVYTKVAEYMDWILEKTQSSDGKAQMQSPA
Assay: ELISA, biotinylated pKal signal over streptavidin background
Text: Abbreviations used: “T/B” is the ELISA signal obtained using of the “target” (biotinylated plasma kallikrein) divided by the ELISA signal of the “background” (streptavidin); both of which were coated on microtiter plates, “nd” is not determined. The symbol “q” refers to the amber suppressible stop codon (TAG), which is translated as glutamine (Q) in strains of E. coli such as the TG1 cells that were used to express the Fab fragments.

Binder | ELISA (T/B)
B1 | 49.6
B2 | 11.7
B3 | 15.5
B4 | 38.3
B5 | 40
B6 | 2.4
B7 | 29.9
B8 | 19
B9 | 3.3
B10 | 6.2
B11 | 11.9
B12 | 18.5
B13 | 4.5
B14 | 5.5
B15 | 16
B16 | 28.2
B17 | 41.8
B18 | 8.8
B19 | 23.4
B20 | 11.4
B21 | 14.4
B22 | 44.7
